We go through four molecules from patent US20260226190A1 (CITY OF HOPE, published 2026).

Numbering of substitutions follows the chain as printed. Numbers in names are those of the source.

In experiment [1] the target is T1, Human prostate stem cell antigen (PSCA) expressed on RM9-hPSCA murine prostate cancer cells (human, UniProt O43653 12-83).
T1 construct: RM9 cells transduced with human PSCA; also called RM9-hPSCA cells
T1 sequence: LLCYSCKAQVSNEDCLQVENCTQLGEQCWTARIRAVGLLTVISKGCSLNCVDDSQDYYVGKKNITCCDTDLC
The experiment in a line: flow cytometry saturation binding on RM9-hPSCA cells, one-site specific binding fit, four independent experiments. The text has this: (§1) The resulting saturation binding curves were fitted (one-site specific binding, GraphPad Prism) to determine Kd and Bₘₐₓ from four independent experiments. […] (FIG. 6)
For orientation: A flow cytometer gives signals particle by particle.

Experiment [2] deals with T1, Human prostate stem cell antigen (PSCA) …. The experiment in a line: saturation binding on PSCA-expressing cells.
Source text: as §1
Two novel anti-PSCA scFv-Fc variants (A2SM, A2aG) were designed, produced, and purified (FIG. 1). SDS-PAGE and SEC analysis confirmed purity and dimeric self-assembly. […] A2SM was successfully radiolabeled with ⁸⁹Zr (efficiency: >90%, purity >99%, n=2) resulting in a specific activity of ~0.17 MBq/μg (FIG. 2). […] Therefore, the novel A2SM could deliver a higher cytotoxic dose to the tumor while the liver remains the dose-limiting organ.

The target in experiment [3] is T2, Recombinant human PSCA-mouse Fc fusion protein (human; mouse, UniProt O43653 12-83, limits assumed).
T2 construct: Those marks are not visible here; also called hPSCA-mFc; human PSCA-murine Fc fusion protein; not shown: mouse Fc
T2 sequence: T1 sequence
The experiment can be described thus: ELISA saturation binding on immobilized hPSCA-mFc, one site-specific binding fit (EC50=Kd), n=3. On the procedure: (§2) Specificity and affinity of antigen binding was further evaluated by performing saturation binding on immobilized antigen in ELISA. Recombinant human PSCA-mouse Fc fusion protein (hPSCA-mFc, produced in house) was immobilized (1 μg/mL, 100 µL/well in PBS overnight at 4° C.). Serial dilutions of anti-PSCA scFvFc's ([…]) were incubated for 1 h at RT and after washing bound antibody fragments were detected using goat anti-human IgG-Fc-AP antibody (1:10,000) and pNPP substrate (alkaline phosphatase yellow, liquid substrate, Sigma-Aldrich P7998). The enzymatic reaction was stopped using 50 μL 2M NaOH and absorbance was red at 405 nm in an SpectraMax M2 microplane reader. Specific binding was fitted using the “one site-specific binding” equation to determine the Kd (ligand concentration that binds half the antigen sites at equilibrium) and Bₘₐₓ (maximum number of binding sites).
(ELISA stands for enzyme-linked immunosorbent assay.)

The target in a further experiment is T3, BSA (UniProt P02769 25-607).
T3 construct: Control coating in the ELISA; also called bovine serum albumin (control coating)
T3 sequence (P02769 25-607 limits assumed): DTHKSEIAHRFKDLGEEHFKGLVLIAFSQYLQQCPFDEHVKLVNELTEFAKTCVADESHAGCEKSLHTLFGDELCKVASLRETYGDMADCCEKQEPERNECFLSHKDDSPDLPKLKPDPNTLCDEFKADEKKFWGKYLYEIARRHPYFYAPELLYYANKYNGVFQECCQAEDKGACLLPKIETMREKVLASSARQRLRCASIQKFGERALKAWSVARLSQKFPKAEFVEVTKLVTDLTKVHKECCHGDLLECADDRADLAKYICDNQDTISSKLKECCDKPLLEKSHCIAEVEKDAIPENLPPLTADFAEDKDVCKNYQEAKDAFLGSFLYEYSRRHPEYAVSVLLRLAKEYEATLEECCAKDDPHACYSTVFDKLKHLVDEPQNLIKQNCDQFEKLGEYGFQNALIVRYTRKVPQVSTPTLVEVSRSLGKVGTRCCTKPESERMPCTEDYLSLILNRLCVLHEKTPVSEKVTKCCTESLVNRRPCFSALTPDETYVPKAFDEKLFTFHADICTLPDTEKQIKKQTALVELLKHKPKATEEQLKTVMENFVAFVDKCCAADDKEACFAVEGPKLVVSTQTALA
The experiment in a line: ELISA, BSA-coated control wells. How it is done: as §2
The purified proteins were tested for specific binding to recombinant antigen by ELISA on immobilized human PSCA-mouse Fc protein. Dose-dependent binding was detected for wells coated with hPSCA-mFc and no non-specific binding was detected in BSA coated control wells.

Experiment [4] has as its target T2, Recombinant human PSCA-mouse Fc fusion …. The experiment in a line: ELISA saturation binding on hPSCA-mFc (value given for the 'previous' variant).

B1: A2scFv-Fc2 SM (anti-PSCA A2 scFv-Fc2 single mutant, H310A, with K322A) (Fc fusion)
chain: EVQLVESGGGLVQPGGSLRLSCAASGFNIKDYYIHWVRQAPGKGLEWVAWIDPEYGDSEFVPKFQGRATMSADTSKNTAYLQMNSLRAEDTAVYYCKTGGFWGRGTLVTVSSGGGGSGGGGSGGSAQDIQLTQSPSSLSASVGDRVTITCSASSSVRFIHWYQQKPGKAPKRLIYDTSKLASGVPSRFSGSGSGTDFTLTISSLQPEDFATYYCQQWGSSPFTFGQGTKVEIKVECPPCPAPPVAGPSVFLFPPKPKDTLMISRTPEVTCVVVDVSHEDPEVQFNWYVDGMEVHNAKTKPREEQFNSTFRVVSVLTVVAQDWLNGKEYKCAVSNKGLPAPIEKTISKTKGQPREPQVYTLPPSREEMTKNQVSLTCLVKGFYPSDIAVEWESNGQPENNYKTTPPMLDSDGSFFLYSKLTVDKSRWQQGNVFSCSVMHEALHNHYTQKSLSLSPGK
notes: Homodimeric scFv-Fc of about 110 kDa, glycosylated, made in FreeStyle 293-F cells; I could not check whether that entry includes a leader peptide from the pSecTag2A vector; also called A2SM; A2scFv-Fc2-SM w/K322A
Consider B1, for which the Kd in experiment [1] was 3.74 nM; in experiment [2], 3.3 nM; in experiment [3] it was 0.59 nM. In the experiment with BSA, the binding result is on record as “no binding”.

B2: A2scFv-Fc2 DM (anti-PSCA A2 scFv-Fc2 double mutant, H310A/H435Q) (Fc fusion)
chain: B1 chain with A331K, H444Q
Consider B2, for which the Kd in experiment [4] was 0.8 nM.

B3: A2scFv-Fc2 DMaG (anti-PSCA A2 scFv-Fc2 double mutant aglycosylated, H310A/H435Q, N297Q, with K322A) (Fc fusion)
chain: B1 chain with N306Q, H444Q
notes: I could not check whether that entry includes a leader peptide; also called A2DMaG; A2scFv-Fc2-DMaG w/K322A
For B3, the Kd is 3.28 nM in experiment [1], 3.1 nM in experiment [2] and 0.8 nM in experiment [3]. Also, in the experiment with BSA, the binding result is “no binding”.

B4: A2scFv-Fc2 (anti-PSCA A2 scFv-Fc2 without FcRn-site mutations) (Fc fusion)
chain: B1 chain with A319H, A331K
notes: also called A2Fc2
B4: in experiment [4], the Kd turned out to be 0.5 nM.

For orientation: Kd means the constant that tells how readily two partners part at equilibrium.
